Results published in patent publication US8715959B2, “Substitution mutant receptors and their use in a nuclear receptor-based inducible gene expression system” (priority 2001, dated 2014).

B1: T58A: CfEcR-DEF LBD substitution mutant, Threonine (T) to Alanine (A) (protein, listed as Choristoneura fumiferana)
chain: LTANQQFLIARLIWYQDGYEQPSDEDLKRITQTWQQADDENEESDTPFRQITEMTILAVQLIVEFAKGLPGFAKISQPDQITLLKACSSEVMMLRVARRYDAASDSVLFANNQAYTRDNYRKAGMAYVIEDLLHFCRCMYSMALDNIHYALLTAVVIFSDRPGLEQPQLVEEIQRYYLNTLRIYILNQLSGSARSSVIYGKILSILSELRTLGMQNSNMCISLKLKNRKLPPFLEEIWDV
B2: V107I/R175E: CfEcR-DEF LBD double mutant, V107I and R175E (protein, listed as Choristoneura fumiferana)
chain: LTANQQFLIARLIWYQDGYEQPSDEDLKRITQTWQQADDENEESDTPFRQITEMTILTVQLIVEFAKGLPGFAKISQPDQITLLKACSSEVMMLRVARRYDAASDSILFANNQAYTRDNYRKAGMAYVIEDLLHFCRCMYSMALDNIHYALLTAVVIFSDRPGLEQPQLVEEIQEYYLNTLRIYILNQLSGSARSSVIYGKILSILSELRTLGMQNSNMCISLKLKNRKLPPFLEEIWDV
B3: V107I: CfEcR-DEF LBD substitution mutant, Valine (V) to Isoleucine (protein, listed as Choristoneura fumiferana)
chain: LTANQQFLIARLIWYQDGYEQPSDEDLKRITQTWQQADDENEESDTPFRQITEMTILTVQLIVEFAKGLPGFAKISQPDQITLLKACSSEVMMLRVARRYDAASDSILFANNQAYTRDNYRKAGMAYVIEDLLHFCRCMYSMALDNIHYALLTAVVIFSDRPGLEQPQLVEEIQRYYLNTLRIYILNQLSGSARSSVIYGKILSILSELRTLGMQNSNMCISLKLKNRKLPPFLEEIWDV
B4: R175E: CfEcR-DEF LBD substitution mutant, Arginine (R) to Glutamine (E) (protein, listed as Choristoneura fumiferana)
chain: LTANQQFLIARLIWYQDGYEQPSDEDLKRITQTWQQADDENEESDTPFRQITEMTILTVQLIVEFAKGLPGFAKISQPDQITLLKACSSEVMMLRVARRYDAASDSVLFANNQAYTRDNYRKAGMAYVIEDLLHFCRCMYSMALDNIHYALLTAVVIFSDRPGLEQPQLVEEIQEYYLNTLRIYILNQLSGSARSSVIYGKILSILSELRTLGMQNSNMCISLKLKNRKLPPFLEEIWDV
B5: V96A: CfEcR-DEF LBD substitution mutant, Valine (V) to Alanine (A) (protein, listed as Choristoneura fumiferana)
chain: LTANQQFLIARLIWYQDGYEQPSDEDLKRITQTWQQADDENEESDTPFRQITEMTILTVQLIVEFAKGLPGFAKISQPDQITLLKACSSEVMMLRAARRYDAASDSVLFANNQAYTRDNYRKAGMAYVIEDLLHFCRCMYSMALDNIHYALLTAVVIFSDRPGLEQPQLVEEIQRYYLNTLRIYILNQLSGSARSSVIYGKILSILSELRTLGMQNSNMCISLKLKNRKLPPFLEEIWDV
B6: V96T: CfEcR-DEF LBD substitution mutant, Valine (V) to Threonine (T) (protein, listed as Choristoneura fumiferana)
chain: LTANQQFLIARLIWYQDGYEQPSDEDLKRITQTWQQADDENEESDTPFRQITEMTILTVQLIVEFAKGLPGFAKISQPDQITLLKACSSEVMMLRTARRYDAASDSVLFANNQAYTRDNYRKAGMAYVIEDLLHFCRCMYSMALDNIHYALLTAVVIFSDRPGLEQPQLVEEIQRYYLNTLRIYILNQLSGSARSSVIYGKILSILSELRTLGMQNSNMCISLKLKNRKLPPFLEEIWDV
B7: T52L: CfEcR-DEF LBD substitution mutant, Threonine (T) to Leucine (L) (protein, listed as Choristoneura fumiferana)
chain: LTANQQFLIARLIWYQDGYEQPSDEDLKRITQTWQQADDENEESDTPFRQILEMTILTVQLIVEFAKGLPGFAKISQPDQITLLKACSSEVMMLRVARRYDAASDSVLFANNQAYTRDNYRKAGMAYVIEDLLHFCRCMYSMALDNIHYALLTAVVIFSDRPGLEQPQLVEEIQRYYLNTLRIYILNQLSGSARSSVIYGKILSILSELRTLGMQNSNMCISLKLKNRKLPPFLEEIWDV
B8: V96M: CfEcR-DEF LBD substitution mutant, Valine (V) to Methionine (M) (protein, listed as Choristoneura fumiferana)
chain: LTANQQFLIARLIWYQDGYEQPSDEDLKRITQTWQQADDENEESDTPFRQITEMTILTVQLIVEFAKGLPGFAKISQPDQITLLKACSSEVMMLRMARRYDAASDSVLFANNQAYTRDNYRKAGMAYVIEDLLHFCRCMYSMALDNIHYALLTAVVIFSDRPGLEQPQLVEEIQRYYLNTLRIYILNQLSGSARSSVIYGKILSILSELRTLGMQNSNMCISLKLKNRKLPPFLEEIWDV
B9: V96T/V107I/R175E: CfEcR-DEF LBD triple mutant, V96T, V107I and R175E (protein, listed as Choristoneura fumiferana)
chain: LTANQQFLIARLIWYQDGYEQPSDEDLKRITQTWQQADDENEESDTPFRQITEMTILTVQLIVEFAKGLPGFAKISQPDQITLLKACSSEVMMLRTARRYDAASDSILFANNQAYTRDNYRKAGMAYVIEDLLHFCRCMYSMALDNIHYALLTAVVIFSDRPGLEQPQLVEEIQEYYLNTLRIYILNQLSGSARSSVIYGKILSILSELRTLGMQNSNMCISLKLKNRKLPPFLEEIWDV
B10: T52A: CfEcR-DEF LBD substitution mutant, Threonine (T) to Alanine (A) (protein, listed as Choristoneura fumiferana)
chain: LTANQQFLIARLIWYQDGYEQPSDEDLKRITQTWQQADDENEESDTPFRQIAEMTILTVQLIVEFAKGLPGFAKISQPDQITLLKACSSEVMMLRVARRYDAASDSVLFANNQAYTRDNYRKAGMAYVIEDLLHFCRCMYSMALDNIHYALLTAVVIFSDRPGLEQPQLVEEIQRYYLNTLRIYILNQLSGSARSSVIYGKILSILSELRTLGMQNSNMCISLKLKNRKLPPFLEEIWDV
B11: T55A: CfEcR-DEF LBD substitution mutant, Threonine (T) to Alanine (A) (protein, listed as Choristoneura fumiferana)
chain: LTANQQFLIARLIWYQDGYEQPSDEDLKRITQTWQQADDENEESDTPFRQITEMAILTVQLIVEFAKGLPGFAKISQPDQITLLKACSSEVMMLRVARRYDAASDSVLFANNQAYTRDNYRKAGMAYVIEDLLHFCRCMYSMALDNIHYALLTAVVIFSDRPGLEQPQLVEEIQRYYLNTLRIYILNQLSGSARSSVIYGKILSILSELRTLGMQNSNMCISLKLKNRKLPPFLEEIWDV

Test system: CfEcR-DEF
Test: GAL4/mutant CfEcR-DEF + VP16/LmUSP-EF GAL4-driven luciferase reporter transactivation in NIH3T3 cells
Type: cell-based, Choristoneura fumiferana
Conditions: for Fold increase over WT, 2.5 μM GS™-E: 2.5 μM GS™-E non-steroidal ligand; for Fold increase over WT, 2.5 μM GS™-E / Fold increase over WT, 2.5 μM PonA / Fold increase over WT, 10 nM GS™-E / Fold increase over WT, 10 nM PonA: NIH3T3 cells, relative to Gal4/wild-type CfEcR-DEF switch activity; for Fold increase over WT, 2.5 μM PonA: 2.5 μM PonA steroidal ligand; for Fold increase over WT, 10 nM GS™-E: 10 nM GS™-E non-steroidal ligand; for Fold increase over WT, 10 nM PonA: 10 nM PonA steroidal ligand
Protocol: DNAs corresponding to the various switch constructs outlined in Example 1, specifically switches 1.1-1.13, were transfected into mouse NIH3T3 cells (ATCC) or L57 cells (Dr. Peter Cherbas; Indiana University) as follows. Standard methods for culture and maintenance of the cells were followed. […] Superfect™ (Qiagen Inc.) was used for 3T3 cells and Lipofectamine™ (LifeTechnologies) was used for L57 cells as the transfection reagents. For 12-well plates, 4 μl of Superfect™ or Lipofectamine™ was mixed with 100 μl of growth medium. One μg of reporter construct and 0.25 μg of each receptor construct of the receptor pair to be analyzed were added to the transfection mix. […] The cells were harvested and reporter activity was assayed.
Cells were harvested 40 hours after adding ligands. […] Twenty μl of lysate were assayed.
Briefly, Applicants mutated amino acid residues predicted to be critical for ecdysteroid binding into alanine and created GAL4/mutantCfEcR-DEF cDNA gene expression cassettes as described in Example 1 above using the Quikchange PCR-mediated site-directed mutagenesis kit (Stratagene, La Jolla, Calif.). The mutated and the WT cDNAs were tested in GAL4-driven luciferase reporter assays.
DNAs corresponding to the various switch constructs outlined in Example 1, specifically switches 1.1-1.2, were transfected into mouse NIH3T3 cells (ATCC) as follows. […] Two μl of Superfect™ was mixed with 100 μl of growth medium and 50 ng of either GAL4/wild-type EcR or Gal4/mutant EcR cassette, 50 ng of VP16/LmUSP-EF and 200 ng of pFRLuc were added to the transfection mix. […] The cells were harvested and reporter activity was assayed as described above.

Molecule	Fold increase over WT, 2.5 μM GS™-E	Fold increase over WT, 2.5 μM PonA	non-steroid activity (summary of Table 10) (GS™-E, CfEcR-DEF point mutants)	steroid binding activity (summary of Table 10) (PonA, CfEcR-DEF point mutants)	Fold increase over WT, 10 nM GS™-E	Fold increase over WT, 10 nM PonA
B1	0.8 fold	0.008 fold	not significantly affected	essentially eliminated	–	–
B2	–	–	–	–	386.4 fold	1194.4 fold
B3	–	–	–	–	12.4 fold	26.6 fold
B4	–	–	–	–	22.0 fold	11.3 fold
B5	0.35 fold	408 fold	–	–	–	–
B6	0.018 fold	45 fold	–	–	–	–
B7	0.26 fold	3.4 fold	–	–	–	–
B8	122 fold	3.37 fold	–	–	–	–
B9	–	–	–	–	0.4 fold	485.7 fold
B10	1.5 fold	0.5 fold	–	–	–	–
B11	1.7 fold	0.13 fold	–	–	–	–
